# Laboratory results taken from article PMC10653834, “Conformational variability of cyanobacterial ChlI, the AAA+ motor of magnesium chelatase involved in chlorophyll biosynthesis” (mBio, 2023).
# Assays:
# ChlI [1] = target: T1, ChlI (Nostoc sp. PCC 7120 = FACHB-418, UniProt P58571); assay: cryo-EM structure of hexamers under turnover; format: binding; conditions: ADP formed from 10 mM ATP, 50 mM MgCl2, pH 7.5; nucleotide pocket at monomer interfaces
# T1 construct: full length, N-terminal His6 tag (kept), pET15b, E. coli LOBSTR; approximately 40 kDa; ATP-induced hexamer (also pentamer); residues 1-13 and 354-374 not modelled
# ChlI [2] = target: T1, ChlI; assay: cryo-EM structure of hexamers under turnover; malachite green ATPase assay; format: binding; conditions: 10 mM ATP, 50 mM MgCl2, pH 7.5; nucleotide pocket at monomer interfaces; hydrolysis at 37 °C
# [3] = target: the molecule itself; assay: cryo-EM structure; 0.5 mg/mL ChlI with 10 mM ATP, 50 mM MgCl2, 0.05% LMNG, 1 mM DTT; no symmetry applied
# [4] = target: the molecule itself; assay: mass photometry; ChlI incubated at 0.5 mg/mL in Tris buffer with 10 mM ADP and 50 mM MgCl2; diluted before measurement
# [5] = target: the molecule itself; assay: mass photometry; ChlI incubated at 0.5 mg/mL in Tris buffer (20 mM Tris, 200 mM NaCl, pH 7.5) alone or with 50 mM MgCl2, no nucleotide; diluted before measurement
molecule,measurement,setting,value
Nc1ncnc2c1ncn2[C@@H]1O[C@H](COP(=O)(O)OP(=O)(O)O)[C@@H](O)[C@H]1O [ADP],cryo-EM structure of hexamers under turnover,ChlI [1],conformation B has ATP bound in four monomers and ADP in two
Nc1ncnc2c1ncn2[C@@H]1O[C@H](COP(=O)(O)OP(=O)(O)OP(=O)(O)O)[C@@H](O)[C@H]1O [ATP],cryo-EM structure of hexamers under turnover; malachite green ATPase assay,ChlI [2],Conformation A is characterized by ATP molecules bound in five monomers and ADP in one
"Nostoc sp. PCC 7120 ChlI, motor (AAA+) subunit of magnesium chelatase (enzyme, UniProt P58571 1-374, looked up, Magnesium chelatase subunit ChlI of Nostoc sp; PCC 7120, gene all0152, amplified from genomic DNA; The printed forward primer places ATG and six His codons before codon 2 (ACT CCA ACA ...); the reverse primer includes the stop codon; Model building counts residues 1-374; Oligomeric state depends on the nucleotide (monomers/dimers without; pentamers and hexamers with ATP and MgCl2); also called …) MTPTAQTTASARRVVFPFTAIVGQEEMKLALLLNVIDPKIGGVMIMGDRGTGKSTTIRALADLLPEIPVVANDPFNSDPSDPDLMSDEVRQKSGTGAEIPIEFKKVQMVDLPLGATEDRVCGTIDIEKALSEGVKAFEPGLLAKANRGILYVDEVNLLDDHLVDVLLDSAASGWNTVEREGISIRHPARFVLVGSGNPEEGELRPQLLDRFGMHAEIHTVKEPALRVQIVEQRSEFDQNPPTFLEKYNPEQTALQKKIVEAQKLLPEVKLDYDLRVKISEVCSELDVDGLRGDIVTNRAAKALTAYEGRTEVTVDDIRRVITLCLRHRLRKDPLESIDSGYKVEKVFARIFGVELLEDDSSQKNGAGQIKTGVR",stoichiometry N,[3],5
same,stoichiometry N,[4],6
same,stoichiometry N,[5],2
